From patent US20240309113A1 (SUZHOU TRANSCENTA THERAPEUTICS, published 2024)
Numbering of substitutions follows the chain as printed.

B1: 125D5G1G2 (hybridoma antibody 125D5, mouse) (antibody, V domains shown)
VH: QVQLQQSGPDLVKPGTSVKISCTASGYTFTDYYINWVKQRPGQGLEWIGWIFPGSGSPYYNENFKGRAMFTVDYSSSSAYMLLSSLTSEDSAVYFCTRGDRSGPFAYWGQGTLVTVSA
VL: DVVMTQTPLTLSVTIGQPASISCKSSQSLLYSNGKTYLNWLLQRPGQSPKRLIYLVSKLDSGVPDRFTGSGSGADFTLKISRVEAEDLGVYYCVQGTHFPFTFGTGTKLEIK
notes: Mouse monoclonal antibody purified from hybridoma supernatant; The label 125D5G1G2 is read as a subclone of 125D5; also called 125D5 mouse/chimeric
B2: 129C10H2C1 (hybridoma antibody 129C10, mouse) (antibody, V domains shown)
VH: QVQLQQSGPELEKPGTSVKISCEASGYTFTDYYINWVQQRPGQGLEWIGWIFPGSESAYHSEKFKAKATLTVDTSSTTAYMLLTSLTSEDSAVYFCTRGDRSGPFAYWGQGTLVTVSA
VL: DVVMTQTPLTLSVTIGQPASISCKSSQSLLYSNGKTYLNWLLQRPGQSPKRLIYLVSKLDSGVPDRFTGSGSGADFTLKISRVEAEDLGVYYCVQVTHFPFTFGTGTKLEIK
notes: Mouse monoclonal antibody purified from hybridoma supernatant; The label 129C10H2C1 is read as a subclone of 129C10; also called 129C10 mouse/chimeric
B3: 160D10 (hybridoma antibody, mouse) (antibody, V domains shown)
VH: QVQLQQSGPELVKPGASVKISCKASGYTFTDYYINWVKQRPGQGLEWVGWIFPGSDSAYYNEKFKGKATLTVDTSSSTAYMLLSSLTSEDSAVYFCARGDRSGPFPYWGQGTLVTVSA
VL: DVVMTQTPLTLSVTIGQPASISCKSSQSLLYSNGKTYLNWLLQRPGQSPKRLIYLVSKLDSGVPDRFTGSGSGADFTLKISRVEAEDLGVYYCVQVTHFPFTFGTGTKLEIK
notes: Mouse monoclonal antibody purified from hybridoma supernatant; also called 160D10 mouse/chimeric
B4: 125D5chiIgG4 (chimeric 125D5, human IgG4 kappa) (antibody, V domains shown)
VH: B1 VH
VL: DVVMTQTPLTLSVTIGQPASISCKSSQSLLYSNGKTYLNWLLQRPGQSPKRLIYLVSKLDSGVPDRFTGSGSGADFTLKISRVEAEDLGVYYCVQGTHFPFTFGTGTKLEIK
notes: also called 125D5chilgG4; 125D5 mouse/chimeric
B5: 129C10chiIgG4 (chimeric 129C10, human IgG4 kappa) (antibody, V domains shown)
VH: B2 VH
VL: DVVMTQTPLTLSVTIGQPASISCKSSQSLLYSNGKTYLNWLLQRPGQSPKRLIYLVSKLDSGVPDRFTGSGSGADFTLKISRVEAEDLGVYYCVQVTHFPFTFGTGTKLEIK
notes: also called 129C10 mouse/chimeric
B6: 129C10 HdLb (antibody, human IgG4, V domains shown)
VH: QVQLVQSGAEVKKPGASVKVSCKASGYTFTDYYINWVRQAPGQGLEWMGWIFPGSESAYHSQKFQGRATLTVDTSISTAYMELSRLRSDDTAVYYCTRGDRSGPFAYWGQGTLVTVSS
VL: DVVMTQSPLSLPVTLGQPASISCKSSQSLLYSNGKTYLNWLQQRPGQSPRRLIYLVSKLDSGVPDRFSGSGSGADFTLKISRVEAEDVGVYYCVQVTHFPFTFGQGTKLEIK
notes: Humanized
B7: 129C10 HbLa (antibody, human IgG4, V domains shown)
VH: B6 VH with Q62E, Q65K, G66A
VL: B6 VL with A74T
notes: Humanized
B8: 129C10 HbLb (antibody, human IgG4, V domains shown)
VH: B6 VH with Q62E, Q65K, G66A
VL: B6 VL
notes: Humanized
B9: 129C10 HaLb (antibody, human IgG4, V domains shown)
VH: B6 VH with Q62E, Q65K, G66A, A68V, L70M
VL: B6 VL
notes: Humanized
B10: 129C10 HdLa (antibody, human IgG4, V domains shown)
VH: B6 VH
VL: B6 VL with A74T
notes: Humanized
B11: 129C10 HcLa (antibody, human IgG4, V domains shown)
VH: B6 VH with A68V, L70M
VL: B6 VL with A74T
notes: Humanized
B12: 129C10 HcLb (antibody, human IgG4, V domains shown)
VH: B6 VH with A68V, L70M
VL: B6 VL
notes: Humanized
B13: 160D10chiIgG4 (chimeric 160D10, human IgG4 kappa) (antibody, V domains shown)
VH: B3 VH
VL: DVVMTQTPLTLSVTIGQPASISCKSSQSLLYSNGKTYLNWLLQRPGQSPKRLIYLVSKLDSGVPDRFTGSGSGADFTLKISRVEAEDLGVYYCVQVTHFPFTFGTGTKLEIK
notes: also called 160D10 mouse/chimeric
B14: OMS721 (hIgG4 kappa) (antibody, V domains shown)
VH: QVTLKESGPVLVKPTETLTLTCTVSGFSLSRGKMGVSWIRQPPGKALEWLAHIFSSDEKSYRTSLKSRLTISKDTSKNQVVLTMTNMDPVDTATYYCARIRRGGIDYWGQGTLVTVSS
VL: QPVLTQPPSLSVSPGQTASITCSGEKLGDKYAYWYQQKPGQSPVLVMYQDKQRPSGIPERFSGSNSGNTATLTISGTQAMDEADYYCQAWDSSTAVFGGGTKLTVLR
notes: Benchmark antibody with the variable regions of OMS721 (Narsoplimab) and the constant region of human IgG4; also called OMS721-analog

What follows are binders tested against T1, human MASP-2 protein (recombinant, full-length, C-terminal tag) (human, UniProt O00187 16-686) (assay: BLI (ForteBio Octet RED96), antibody on Protein A biosensor, human MASP-2 in solution (100, 50, 25 nM)).
T1 construct: The protein was secreted and purified on an anti-FLAG or anti-HIS column; also called hMASP-2; Full-length human MASP-2 protein; not shown: C-terminal HIS-tag or FLAG-tag
T1 sequence (O00187 16-686): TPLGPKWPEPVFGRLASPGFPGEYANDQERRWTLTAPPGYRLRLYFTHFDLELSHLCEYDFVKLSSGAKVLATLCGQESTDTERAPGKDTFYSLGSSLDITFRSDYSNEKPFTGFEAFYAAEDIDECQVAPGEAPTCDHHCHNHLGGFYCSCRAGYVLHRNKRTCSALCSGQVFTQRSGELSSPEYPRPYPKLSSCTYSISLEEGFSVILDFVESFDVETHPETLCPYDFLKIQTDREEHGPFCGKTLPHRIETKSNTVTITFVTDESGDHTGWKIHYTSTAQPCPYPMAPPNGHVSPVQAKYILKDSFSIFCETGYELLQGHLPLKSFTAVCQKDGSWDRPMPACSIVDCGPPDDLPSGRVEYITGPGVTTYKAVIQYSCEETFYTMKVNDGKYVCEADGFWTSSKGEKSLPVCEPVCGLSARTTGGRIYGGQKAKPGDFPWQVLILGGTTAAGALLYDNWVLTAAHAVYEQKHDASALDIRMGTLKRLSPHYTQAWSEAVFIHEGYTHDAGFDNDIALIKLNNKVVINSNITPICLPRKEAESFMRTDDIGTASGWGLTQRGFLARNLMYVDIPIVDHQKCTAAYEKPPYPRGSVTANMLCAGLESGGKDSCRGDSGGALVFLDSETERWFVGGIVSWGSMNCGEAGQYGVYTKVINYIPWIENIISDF

Kd | koff | kon | Binder
1.64 nM | 9.73e-05 s⁻¹ | 59400 M⁻¹ s⁻¹ | B1
0.746 nM | 4.78e-05 s⁻¹ | 64000 M⁻¹ s⁻¹ | B2
27.8 nM | 0.001 s⁻¹ | 36100 M⁻¹ s⁻¹ | B3

Biological target: T1, human MASP-2 protein (recombinant, …)
Assay: as above
Remark: another data set of the same source

Kd | koff | kon | Binder
19.5 nM | 0.000499 s⁻¹ | 25600 M⁻¹ s⁻¹ | B4
8.02 nM | 0.000206 s⁻¹ | 25700 M⁻¹ s⁻¹ | B5
< 0.001 nM | < 1e-07 s⁻¹ | 36000 M⁻¹ s⁻¹ | B6
< 0.001 nM | < 1e-07 s⁻¹ | 32900 M⁻¹ s⁻¹ | B7
< 0.001 nM | < 1e-07 s⁻¹ | 32900 M⁻¹ s⁻¹ | B8
11.4 nM | 0.000291 s⁻¹ | 25500 M⁻¹ s⁻¹ | B9
17.1 nM | 0.000425 s⁻¹ | 24900 M⁻¹ s⁻¹ | B10
< 0.001 nM | < 1e-07 s⁻¹ | 35200 M⁻¹ s⁻¹ | B11
1.36 nM | 4.56e-05 s⁻¹ | 33700 M⁻¹ s⁻¹ | B12
0.984 nM | 3.34e-05 s⁻¹ | 34000 M⁻¹ s⁻¹ | B13

The binders below were run against T2, Rat MASP2 (rat, UniProt Q9JJS8) (assay: ELISA; plate coated with rat MASP2 (1 ug/ml), serially diluted antibody, mouse anti-human IgG4 Fc HRP, OD450).
T2 construct: purchased protein coated on the ELISA plate at 1 ug/ml
T2 sequence (Q9JJS8 20-685 limits assumed): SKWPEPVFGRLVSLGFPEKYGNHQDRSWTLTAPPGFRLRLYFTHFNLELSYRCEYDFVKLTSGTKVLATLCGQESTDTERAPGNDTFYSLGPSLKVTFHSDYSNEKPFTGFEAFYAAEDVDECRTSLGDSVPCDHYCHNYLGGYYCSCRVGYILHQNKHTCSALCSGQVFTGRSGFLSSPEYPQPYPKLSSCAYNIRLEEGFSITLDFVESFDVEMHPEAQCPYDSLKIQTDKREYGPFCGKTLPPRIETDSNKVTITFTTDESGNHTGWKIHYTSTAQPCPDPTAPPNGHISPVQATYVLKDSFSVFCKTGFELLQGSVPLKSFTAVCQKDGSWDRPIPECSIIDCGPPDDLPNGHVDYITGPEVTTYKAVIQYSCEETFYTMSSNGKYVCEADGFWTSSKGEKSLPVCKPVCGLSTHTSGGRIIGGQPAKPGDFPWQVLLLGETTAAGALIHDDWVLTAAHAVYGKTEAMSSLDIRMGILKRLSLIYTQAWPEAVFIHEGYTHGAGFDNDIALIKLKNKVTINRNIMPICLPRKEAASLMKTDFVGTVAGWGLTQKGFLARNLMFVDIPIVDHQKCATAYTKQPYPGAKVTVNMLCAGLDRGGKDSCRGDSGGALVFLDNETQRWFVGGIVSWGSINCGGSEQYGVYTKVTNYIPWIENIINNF

EC50 | Binder
12.3 µg/mL | B14

What follows are binders tested against T3, Mouse MASP2 (mouse, UniProt Q91WP0) (assay: ELISA; plate coated with mouse MASP2 (1 ug/ml), serially diluted antibody, mouse anti-human IgG4 Fc HRP, OD450).
T3 construct: purchased protein coated on the ELISA plate at 1 ug/ml
T3 sequence (Q91WP0 20-685 limits assumed): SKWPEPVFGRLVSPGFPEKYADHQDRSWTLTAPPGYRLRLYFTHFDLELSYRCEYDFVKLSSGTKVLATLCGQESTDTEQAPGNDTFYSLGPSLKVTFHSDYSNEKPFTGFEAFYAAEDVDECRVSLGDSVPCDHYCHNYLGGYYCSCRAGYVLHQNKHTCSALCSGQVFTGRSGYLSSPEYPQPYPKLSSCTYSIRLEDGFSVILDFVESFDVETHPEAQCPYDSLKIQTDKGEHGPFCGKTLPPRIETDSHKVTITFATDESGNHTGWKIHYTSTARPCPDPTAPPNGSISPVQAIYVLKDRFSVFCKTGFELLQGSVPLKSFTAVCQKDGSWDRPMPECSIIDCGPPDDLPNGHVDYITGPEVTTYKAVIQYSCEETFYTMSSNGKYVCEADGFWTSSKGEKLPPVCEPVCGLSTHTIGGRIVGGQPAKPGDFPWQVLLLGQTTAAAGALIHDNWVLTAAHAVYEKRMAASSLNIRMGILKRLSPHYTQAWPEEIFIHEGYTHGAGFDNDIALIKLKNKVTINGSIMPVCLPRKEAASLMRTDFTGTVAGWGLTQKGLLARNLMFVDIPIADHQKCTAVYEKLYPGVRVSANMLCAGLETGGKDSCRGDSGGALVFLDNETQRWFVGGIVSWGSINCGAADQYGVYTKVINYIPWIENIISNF

EC50 | Binder
4.91 µg/mL | B14

What follows are binders tested against T4, Cyno MASP2 (assay: ELISA; plate coated with cynomolgus MASP2 (1 ug/ml), serially diluted antibody, mouse anti-human IgG4 Fc HRP, OD450).
T4 construct: Recombinant coated protein; distinct from m29 (native MASP-2 in cynomolgus serum); also called cynomolgus MASP-2 (recombinant, generated in house)
T4 sequence (MASP-2 polypeptide, as listed by the source limits assumed): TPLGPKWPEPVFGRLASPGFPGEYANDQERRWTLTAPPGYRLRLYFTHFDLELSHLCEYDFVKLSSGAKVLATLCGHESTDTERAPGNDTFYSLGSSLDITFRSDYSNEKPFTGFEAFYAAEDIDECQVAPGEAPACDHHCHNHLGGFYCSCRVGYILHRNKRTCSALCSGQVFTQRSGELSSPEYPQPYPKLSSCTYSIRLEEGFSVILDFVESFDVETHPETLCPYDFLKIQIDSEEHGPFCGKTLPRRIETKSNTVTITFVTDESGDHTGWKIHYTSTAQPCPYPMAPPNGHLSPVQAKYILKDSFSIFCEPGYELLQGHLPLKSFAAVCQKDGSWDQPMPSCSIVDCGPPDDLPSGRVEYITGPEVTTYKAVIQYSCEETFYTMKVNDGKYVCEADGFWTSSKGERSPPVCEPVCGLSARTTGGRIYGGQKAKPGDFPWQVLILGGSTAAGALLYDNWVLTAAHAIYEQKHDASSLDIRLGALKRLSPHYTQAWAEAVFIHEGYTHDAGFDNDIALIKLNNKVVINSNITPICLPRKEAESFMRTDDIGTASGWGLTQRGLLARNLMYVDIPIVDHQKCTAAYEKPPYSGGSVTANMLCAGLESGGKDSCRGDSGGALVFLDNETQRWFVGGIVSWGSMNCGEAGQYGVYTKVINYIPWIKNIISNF

EC50 | Binder
0.0181 µg/mL | B14
